This is an account of results in article PMC10425836, “Cryo‐EM structure of antibacterial efflux transporter QacA from Staphylococcus aureus reveals a novel extracellular loop with allosteric role” (The EMBO Journal, 2023).

The target in one test is five unique clones. Briefly: flow cytometry on cells; yeast cells displaying individual ICab clones with QacA_(D411N)-GFP; percent population shift. On the technique in general: In flow cytometry, cells or beads pass a laser one at a time.
Test [1] deals with ICab A4 displayed on the yeast cell surface. Briefly: flow cytometry on cells; yeast cells displaying the ICab incubated with different concentrations of purified QacA_(D411N)-GFP; population shift-based titration; one site-specific binding fit; apparent Kd.
Test [2] addresses ICab B7 displayed on the yeast cell surface. The description is as above.
The next test addresses the identified ICabs. Described as above.
A further test deals with T1, QacAWT tagged with GFP (Staphylococcus aureus, UniProt P0A0J9).
T1 construct: QacA wild type, 14 transmembrane helix MFS (DHA2) antibacterial efflux antiporter of Staphylococcus aureus; codon-optimized synthetic gene in pBAD-His8; the methods of the spheroplast imaging name only QacA_(D411N)-GFP; also called QacA-GFP; source: on E. coli spheroplasts; not shown: GFP, C-terminal, kept
Briefly: immunostaining of cells or tissue; NHS-Rhodamine labelled ICabs (0.03 mg/ml) added to E. coli spheroplasts expressing GFP-tagged QacA, room temperature 30 min, washed, confocal microscopy. Conditions: one partner purified.

B1: QacA_(D411N)-GFP (natural protein)
chain: MISFFTKTTDMMTSKKRWTALVVLAVSLFVVTMDMTILIMALPELVRELEPSGTQQLWIVDIYSLVLAGFIIPLSAFADKWGRKKALLTGFALFGLVSLAIFFAESAEFVIAIRFLLGIAGALIMPTTLSMIRVIFENPKERATALAVWSIASSIGAVFGPIIGGALLEQFSWHSAFLINVPFAIIAVVAGLFLLPESKLSKEKSHSWDIPSTILSIAGMIGLVWSIKEFSKEGLADIIPWVVIVLAITMIVIFVKRNLSSSDPMLDVRLFKKRSFSAGTIAAFMTMFAMASVLLLASQWLQVVEELSPFKAGLYLLPMAIGDMVFAPIAPGLAARFGPKIVLPSGIGIAAIGMFIMYFFGHPLSYSTMALALILVGAGMASLAVASALIMLETPTSKAGNAAAVEESMYNLGNVFGVAVLGSLSSMLYRVFLDISSFSSKGIVGDLAHVAEESVVGAVEVAKATGIKQLANEAVTSFNDAFVATALVGGIIMIIISIVVYLLIPKSLDITKQK
For B1, the population shift with five unique clones is 65 to 97%. Also, the figures for the Kd (in test [1]; in test [2]; with the identified ICabs) were 65 nM, 100 nM and 59 nM, respectively.

B2: ICab A4, purified (VHH)
VHH: QVQLQESGGGSVQTGGSLRLSCAASGYRYSDNCVGWFRQAPGREREAVATYNSGSSTWYADSVKGRFTISQDSAKSTVYLQMNNLKPEDTAMYYCAGRNRLGSYCYMTGDFAYWGQGTQVTVSS
notes: single-domain Indian camelid antibody A4 from a camel immunised with QacA; source: E. coli SHuffle T7, purified (Ni-NTA, SEC)
With B2, the binding result with QacAWT tagged with GFP is “binds”.

B3: ICab B7, purified (VHH)
VHH: QVQLQESGGGSVQAGGSLRLSCAASGYTNSRKCMGWFRQIPGKEREGVAAIYGFGRGLILYADSVKGRFTISQDNAKNTVYLQMNSLKPEDTAMYYCAADSPGSCLSRSGYNYWGQGTQVTVSS
notes: single-domain Indian camelid antibody B7 from a camel immunised with QacA; source: E. coli SHuffle T7, purified (Ni-NTA, SEC)
As to B3, the binding result in the test with QacAWT tagged with GFP is recorded as “binds”.
